Results reported in patent US20250073307A1 (Chugai, published 2025).
Like-named read-outs stand apart in the source and are kept apart here.

T1: mouse CXCR3 (mCXCR3) expressed on Ba/F3 transfectant cells (mouse, UniProt O88410 1-367)
T1 sequence (looked up): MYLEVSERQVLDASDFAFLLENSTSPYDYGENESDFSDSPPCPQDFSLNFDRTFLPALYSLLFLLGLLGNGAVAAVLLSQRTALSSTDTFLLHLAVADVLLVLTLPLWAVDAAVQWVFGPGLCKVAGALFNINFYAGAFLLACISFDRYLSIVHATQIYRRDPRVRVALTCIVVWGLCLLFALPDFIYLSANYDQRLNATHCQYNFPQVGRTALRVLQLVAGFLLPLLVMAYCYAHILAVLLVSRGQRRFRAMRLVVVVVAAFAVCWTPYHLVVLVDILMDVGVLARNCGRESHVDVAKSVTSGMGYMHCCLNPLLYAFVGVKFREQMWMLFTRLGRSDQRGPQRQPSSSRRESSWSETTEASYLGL


What was measured:
Experiment in all cases: cell-based or functional assay
[1] = target: T1, mouse CXCR3 (mCXCR3) expressed on Ba/F3 …
[2] = target: T1, mouse CXCR3 (mCXCR3) expressed on Ba/F3 …; remark: listed apart in the source
[3] = target: T1, mouse CXCR3 (mCXCR3) expressed on Ba/F3 …; remark: listed apart in the source
[4] = target: T1, mouse CXCR3 (mCXCR3) expressed on Ba/F3 …; remark: listed apart in the source
[5] = target: T1, mouse CXCR3 (mCXCR3) expressed on Ba/F3 …; remark: listed apart in the source

| cell migration-inducing activity (BaF3/mCXCR3 transwell) at 3 nM, relative to hCXCL10R75A Fc fusion = 100% [2] | cell migration-inducing activity (BaF3/mCXCR3 transwell) at 10 nM, relative to hCXCL10R75A Fc fusion = 100% [2] | cell migration-inducing activity (BaF3/mCXCR3 transwell) at 30 nM, relative to hCXCL10R75A Fc fusion = 100% [2] | cell migration-inducing activity (BaF3/mCXCR3 transwell) at 100 nM, relative to hCXCL10R75A Fc fusion = 100% [2] | cell migration-inducing activity (BaF3/mCXCR3 transwell) at 300 nM, relative to hCXCL10R75A Fc fusion = 100% [2] | cell migration-inducing activity (BaF3/mCXCR3 transwell) at 1000 nM, relative to hCXCL10R75A Fc fusion = 100% [2] | cell migration-inducing activity at 3 nM, relative to hCXCL10R75A.0670 Fc fusion = 100% [3] | cell migration-inducing activity at 10 nM, relative to hCXCL10R75A.0670 Fc fusion = 100% [3] | cell migration-inducing activity at 30 nM, relative to hCXCL10R75A.0670 Fc fusion = 100% [3] | cell migration-inducing activity at 100 nM, relative to hCXCL10R75A.0670 Fc fusion = 100% [3] | cell migration-inducing activity at 300 nM, relative to hCXCL10R75A.0670 Fc fusion = 100% [3] | cell migration-inducing activity at 1000 nM, relative to hCXCL10R75A.0670 Fc fusion = 100% [3] | Binder | also measured |
| --- | --- | --- | --- | --- | --- | --- | --- | --- | --- | --- | --- | --- | --- |
| 196% | 150% | 106% | 98% | 116% | 80% | – | – | – | – | – | – | hCXCL10R75A.0642-G1T4k.one//VHn-G1T4h.one.H435R (Fc fusion) chain 1: VPLSRTVRCTCISISNQCVNPRSLEKLEIIPASQFCPRVEIIATMKKKGEKRCLNPESKCIKNLLKAVSKERSKASPEPKSSDKTHTCPPCPAPELRRGPSVFLFPPKPKDTLMISRTPEVTCVVVDVSHEDPEVKFNWYVDGVEVHNAKTKPREEQYNSTYRVVSVLTVLHQDWLNGKEYKCKVSNKGLPSSIEKTISKAKGQPREPQVCTLPPSREEMTKNQVSLWCLVKGFYPSDIAVEWESNGQPENNYKTTPPVLDSDGSFFLYSKLTVDKSRWQEGNVFSCSVMHEALHNHYTQKSLSLSP chain 2: EPKSSDKTHTCPPCPAPELRRGPSVFLFPPKPKDTLMISRTPEVTCVVVDVSHEDPEVKFNWYVDGVEVHNAKTKPREEQYNSTYRVVSVLTVLHQDWLNGKEYKCKVSNKGLPSSIEKTISKAKGQPREPQVYTLPPSRCEMTKNQVSLSCAVKGFYPSDIAVEWESNGQPENNYKTTPPVLDSDGSFFLVSKLTVDKSRWQEGNVFSCSVMHEALHNRYTQKSLSLSP | cell migration-inducing activity (BaF3/mCXCR3 transwell) at 3 nM, relative to hCXCL10R75A Fc fusion = 100% [1]: 196%; cell migration-inducing activity (BaF3/mCXCR3 transwell) at 10 nM, relative to hCXCL10R75A Fc fusion = 100% [1]: 150%; cell migration-inducing activity (BaF3/mCXCR3 transwell) at 30 nM, relative to hCXCL10R75A Fc fusion = 100% [1]: 106%; cell migration-inducing activity (BaF3/mCXCR3 transwell) at 100 nM, relative to hCXCL10R75A Fc fusion = 100% [1]: 98%; cell migration-inducing activity (BaF3/mCXCR3 transwell) at 300 nM, relative to hCXCL10R75A Fc fusion = 100% [1]: 116%; cell migration-inducing activity (BaF3/mCXCR3 transwell) at 1000 nM, relative to hCXCL10R75A Fc fusion = 100% [1]: 80% |
| – | – | – | – | – | – | 209% | 132% | 110% | 102% | 93% | 49% | hCXCL10R75A.0613-G1T4k.one//VHn-G1T4h.one.H435R (Fc fusion) chain 1: YVLSRTPRCTCISISNQCVNPRSLEKLEIIPASQFCPRVEIIATMKKKGEKRCLNPESKCIKNLLKAVSKERSKASPEPKSSDKTHTCPPCPAPELRRGPSVFLFPPKPKDTLMISRTPEVTCVVVDVSHEDPEVKFNWYVDGVEVHNAKTKPREEQYNSTYRVVSVLTVLHQDWLNGKEYKCKVSNKGLPSSIEKTISKAKGQPREPQVCTLPPSREEMTKNQVSLWCLVKGFYPSDIAVEWESNGQPENNYKTTPPVLDSDGSFFLYSKLTVDKSRWQEGNVFSCSVMHEALHNHYTQKSLSLSP chain 2: EPKSSDKTHTCPPCPAPELRRGPSVFLFPPKPKDTLMISRTPEVTCVVVDVSHEDPEVKFNWYVDGVEVHNAKTKPREEQYNSTYRVVSVLTVLHQDWLNGKEYKCKVSNKGLPSSIEKTISKAKGQPREPQVYTLPPSRCEMTKNQVSLSCAVKGFYPSDIAVEWESNGQPENNYKTTPPVLDSDGSFFLVSKLTVDKSRWQEGNVFSCSVMHEALHNRYTQKSLSLSP | – |
| – | – | – | – | – | – | 100% | 100% | 100% | 100% | 100% | 100% | hCXCL10R75A.0670-G1T4k.one//VHn-G1T4h.one.H435R (Fc fusion) chain 1: YVLSRTVRCTCISISNQCVNPRSLEKLEIIPASQFCPRVEIIATMKKKGEKRCLNPESKCIKNLLKAVSKERSKASPEPKSSDKTHTCPPCPAPELRRGPSVFLFPPKPKDTLMISRTPEVTCVVVDVSHEDPEVKFNWYVDGVEVHNAKTKPREEQYNSTYRVVSVLTVLHQDWLNGKEYKCKVSNKGLPSSIEKTISKAKGQPREPQVCTLPPSREEMTKNQVSLWCLVKGFYPSDIAVEWESNGQPENNYKTTPPVLDSDGSFFLYSKLTVDKSRWQEGNVFSCSVMHEALHNHYTQKSLSLSP chain 2: EPKSSDKTHTCPPCPAPELRRGPSVFLFPPKPKDTLMISRTPEVTCVVVDVSHEDPEVKFNWYVDGVEVHNAKTKPREEQYNSTYRVVSVLTVLHQDWLNGKEYKCKVSNKGLPSSIEKTISKAKGQPREPQVYTLPPSRCEMTKNQVSLSCAVKGFYPSDIAVEWESNGQPENNYKTTPPVLDSDGSFFLVSKLTVDKSRWQEGNVFSCSVMHEALHNRYTQKSLSLSP | cell migration-inducing activity (BaF3/mCXCR3 transwell) at 3 nM, relative to hCXCL10R75A Fc fusion = 100% [4]: 195%; cell migration-inducing activity (BaF3/mCXCR3 transwell) at 10 nM, relative to hCXCL10R75A Fc fusion = 100% [4]: 146%; cell migration-inducing activity (BaF3/mCXCR3 transwell) at 30 nM, relative to hCXCL10R75A Fc fusion = 100% [4]: 132%; cell migration-inducing activity (BaF3/mCXCR3 transwell) at 100 nM, relative to hCXCL10R75A Fc fusion = 100% [4]: 132%; cell migration-inducing activity (BaF3/mCXCR3 transwell) at 300 nM, relative to hCXCL10R75A Fc fusion = 100% [4]: 127%; cell migration-inducing activity (BaF3/mCXCR3 transwell) at 1000 nM, relative to hCXCL10R75A Fc fusion = 100% [4]: 24% |
| – | – | – | – | – | – | – | – | – | – | – | – | hCXCL10R75A.0643-G1T4k.one//VHn-G1T4h.one.H435R (Fc fusion) chain 1: YVLSRTVRCTCISISNQPVNPRSLEKLEIIPASQFCPRVEIIATMKKKGEKRCLNPESKAIKNLLKAVSKERSKASPEPKSSDKTHTCPPCPAPELRRGPSVFLFPPKPKDTLMISRTPEVTCVVVDVSHEDPEVKFNWYVDGVEVHNAKTKPREEQYNSTYRVVSVLTVLHQDWLNGKEYKCKVSNKGLPSSIEKTISKAKGQPREPQVCTLPPSREEMTKNQVSLWCLVKGFYPSDIAVEWESNGQPENNYKTTPPVLDSDGSFFLYSKLTVDKSRWQEGNVFSCSVMHEALHNHYTQKSLSLSP chain 2: EPKSSDKTHTCPPCPAPELRRGPSVFLFPPKPKDTLMISRTPEVTCVVVDVSHEDPEVKFNWYVDGVEVHNAKTKPREEQYNSTYRVVSVLTVLHQDWLNGKEYKCKVSNKGLPSSIEKTISKAKGQPREPQVYTLPPSRCEMTKNQVSLSCAVKGFYPSDIAVEWESNGQPENNYKTTPPVLDSDGSFFLVSKLTVDKSRWQEGNVFSCSVMHEALHNRYTQKSLSLSP | cell migration-inducing activity (BaF3/mCXCR3 transwell) at 3 nM, relative to hCXCL10R75A Fc fusion = 100% [5]: 126%; cell migration-inducing activity (BaF3/mCXCR3 transwell) at 10 nM, relative to hCXCL10R75A Fc fusion = 100% [5]: 100%; cell migration-inducing activity (BaF3/mCXCR3 transwell) at 30 nM, relative to hCXCL10R75A Fc fusion = 100% [5]: 129%; cell migration-inducing activity (BaF3/mCXCR3 transwell) at 100 nM, relative to hCXCL10R75A Fc fusion = 100% [5]: 141%; cell migration-inducing activity (BaF3/mCXCR3 transwell) at 300 nM, relative to hCXCL10R75A Fc fusion = 100% [5]: 124%; cell migration-inducing activity (BaF3/mCXCR3 transwell) at 1000 nM, relative to hCXCL10R75A Fc fusion = 100% [5]: 26% |
| 174% | 144% | 109% | 107% | 153% | 163% | – | – | – | – | – | – | hCXCL10R75A.0644-G1T4k.one//VHn-G1T4h.one.H435R (Fc fusion) chain 1: VVLSRTVRCTCISISNQCVNPRSLEKLEIIPASQFCPRVEIIATMKKKGEKRCLNPESKCIKNLLKAVSKERSKASPEPKSSDKTHTCPPCPAPELRRGPSVFLFPPKPKDTLMISRTPEVTCVVVDVSHEDPEVKFNWYVDGVEVHNAKTKPREEQYNSTYRVVSVLTVLHQDWLNGKEYKCKVSNKGLPSSIEKTISKAKGQPREPQVCTLPPSREEMTKNQVSLWCLVKGFYPSDIAVEWESNGQPENNYKTTPPVLDSDGSFFLYSKLTVDKSRWQEGNVFSCSVMHEALHNHYTQKSLSLSP chain 2: EPKSSDKTHTCPPCPAPELRRGPSVFLFPPKPKDTLMISRTPEVTCVVVDVSHEDPEVKFNWYVDGVEVHNAKTKPREEQYNSTYRVVSVLTVLHQDWLNGKEYKCKVSNKGLPSSIEKTISKAKGQPREPQVYTLPPSRCEMTKNQVSLSCAVKGFYPSDIAVEWESNGQPENNYKTTPPVLDSDGSFFLVSKLTVDKSRWQEGNVFSCSVMHEALHNRYTQKSLSLSP | – |
